The source of these data is PMC9063451.

For test [1], the target named is BotI-like toxin (Buthus occitanus tunetanus) (UniProt P01488).
The target is the same in test [2]. Put plainly: SPR.

B1: NbBotI-17 (VHH)
VHH: QVQLQESGGGPVQAGGSLRLSCAASGFTDSNKNVHWFRQVPGKQCERVSTITSNGVTNYADSVKGRFTASRDNSKNTVYLQMNTLKTEDTAVYYCVSVYIWESIGPSQRCRGQGTQVTVSS
With B1, the neutralisation of the toxin's lethality in Swiss mice (i.c.v. injection after 1 h preincubation at 37°C); 2 or 4 molar excess of Nb: 50% neutralisation at 6 and 7 LD50 (LD50 of toxin (50% neutralised)) in test [1] stood at 7. In test [2], this molecule registered a Kd of 4.72 nM, a dissociation rate constant (koff) of 0.0308 s⁻¹ and an on-rate (kon) of 6.52e+06 M⁻¹ s⁻¹.

B2: NbBotI-01 (VHH)
VHH: QVQLQESGGGLVQPGGSLRLSCAASGFSFTVYYMSWVRQTPGKGLEWVSGINRDGSIIDYADSVKGRFTISRDNAENTLYLEMNSRKSEDTALNDCTPHVRGGRYRTRGQGTQVTVSS
In test [2], B2 came in with a Kd of 0.0953 nM, a koff of 0.000464 s⁻¹ and a kon of 4.87e+06 M⁻¹ s⁻¹.
